In publication PMC9496217, “Structural Basis of a Novel Agonistic Anti-OX40 Antibody” (Biomolecules, 2022):

What was measured:
Conditions in all cases: both partners purified
[1] = target: T1, human OX40 extracellular domain (recombinant, C-terminal His tag) (Homo sapiens); assay: ELISA; human OX40 variants coated on a 96-well plate; serially diluted antibody added for 2 h at 37 °C; detected with goat (Fab')2 anti-human IgG Fc (HRP)
T1 construct: OX40 (TNFRSF4, CD134), human, extracellular domain (four cysteine-rich domains CRD1-4); The deposited entries 8AG1 and 7YK4 hold the construct; also called hOX40; TNFRSF4; source: HEK293F, transient expression, purified (HisTrap, Superdex 200 gel filtration)
T1 chain: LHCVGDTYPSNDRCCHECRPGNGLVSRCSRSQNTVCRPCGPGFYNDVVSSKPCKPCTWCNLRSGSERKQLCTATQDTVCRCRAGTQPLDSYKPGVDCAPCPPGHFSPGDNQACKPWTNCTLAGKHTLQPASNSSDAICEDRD

[2] = target: T1, human OX40 extracellular domain …; assay: BLI; DF004 (10 μg/mL) loaded on protein A sensors; OX40 variants as two-fold serial dilutions in PBS with 1% BSA; association 120 s, dissociation up to 320 s; Octet K2
OX40-G70A = target: T2, OX40-G70A (human, UniProt P43489, G70A); assay: as above
T2 construct: OX40 (TNFRSF4), human, extracellular domain with G70A; Tag and host are told for recombinant OX40 in general, not for the variants by name; also called G70A variant of human OX40; source: HEK293F, transient expression, purified (told for recombinant human OX40 in general)

EC50 [1]: ~0.09 nM
Kd [2]: 4.39 nM
fold decrease of binding affinity against wild-type OX40 (kd value) (OX40-G70A): ~32 fold
B1: DF004 (full antibody, IgG1) (antibody, V domains shown)
VH: QVQLQQSGPGLVKPSQTLSLTCAISGDSVSSNSVSWDWIRQSPSRGLEWLGRTYYRSKWYNEYAVSVESRITINPDTSKNQFSLQLNSVTPEDTAIYFCVRNDYFFDLWGRGTLVTVSS
VL: EIVLTQSPATLSLSPGERATLSCRASQSVGSYLAWYQQKPGQAPRLLIYDASNRATGIPARFSGSGSGTDFTLTISSLEPEDFAVYYCQQRSNWPPGYTFGQGTKLEIK
notes: VH of DF004, as in the heavy chain (VH-CH1) of m3; IgG1 constant region; as the light chain (VL-CL) of m3; IgG1; scFv clone from a yeast display library made from PBMCs of healthy human donors, variable fragments grafted onto IgG1 Fc; source: HEK293F, transient expression, purified from the expression medium (protein A column)
